Measured values from the Human Domainome abundance scans (Beltran et al. 2025).
± gives the uncertainty stated by the source.

B1: Tyrosine-protein kinase BTK, residues 215 to 273; numbered along this chain, Q06187 (parent)
chain: ELKKVVALYDYMPMNANDLQLRKGDEYFILEESNLPWWRARDKNGQEGYIPSNYVTEAE

Variants of: B1
Experiment: abundance fitness (aPCA) (normalised: wild type 0, dead -1); higher = more abundant; growth selection in yeast, the domain comes from the species named
Conditions: Homo sapiens

Variant | abundance fitness
R22H | -0.08 ± 0.058
R22N | -0.012 ± 0.079
R22F | -0.036 ± 0.062
R22P | -0.768 ± 0.086
A16C | -0.063 ± 0.054
A16V | -0.046 ± 0.03
A16Q | 0.016 ± 0.04
A16D | 0.044 ± 0.051
A16F | -0.18 ± 0.053
A16L | -0.083 ± 0.027
A16K | -0.068 ± 0.044
A16R | -0.055 ± 0.028
A16H | -0.026 ± 0.074
A16W | -0.105 ± 0.037
A16N | -0.045 ± 0.055
A16S | -0.042 ± 0.031
A16M | -0.141 ± 0.042
A16T | -0.031 ± 0.039
A16E | 0.013 ± 0.042
A16P | -0.093 ± 0.043
A16I | -0.229 ± 0.058
A16Y | -0.17 ± 0.06
Y11Q | -0.316 ± 0.065
Y11E | -0.562 ± 0.1

Variant | abundance fitness
Y11H | -0.155 ± 0.07
Y11P | -0.704 ± 0.063
Y11M | -0.099 ± 0.06
Y11I | -0.245 ± 0.05
Y11C | -0.202 ± 0.05
Y11D | -0.72 ± 0.14
Y11L | -0.094 ± 0.031
Y11F | 0.005 ± 0.05
Y11T | -0.182 ± 0.058
Y11R | 0.032 ± 0.032
Y11G | -0.709 ± 0.058
Y11V | -0.298 ± 0.042
Y11N | -0.383 ± 0.075
Y11W | 0.017 ± 0.04
Y11S | -0.161 ± 0.033
M14S | -0.001 ± 0.031
M14T | -0.028 ± 0.04
M14C | -0.08 ± 0.059
M14I | -0.049 ± 0.049
M14L | -0.018 ± 0.03
M14A | 0.051 ± 0.039
M14W | -0.129 ± 0.042
M14R | 0.051 ± 0.035
M14Q | 0.038 ± 0.064

Variant | abundance fitness
M14Y | -0.15 ± 0.12
M14P | -0.002 ± 0.049
M14G | 0.02 ± 0.035
M14D | -0.013 ± 0.076
M14V | 0.026 ± 0.032
M14K | -0.007 ± 0.059
M14F | 0.022 ± 0.044
M14N | 0.059 ± 0.062
M14H | 0.068 ± 0.1
N17P | -0.123 ± 0.045
N17T | 0.002 ± 0.051
N17K | -0.052 ± 0.058
N17F | -0.029 ± 0.056
N17L | -0.019 ± 0.031
N17H | 0.03 ± 0.068
N17S | -0.002 ± 0.035
N17M | -0.017 ± 0.05
N17I | -0.187 ± 0.075
N17Y | -0.088 ± 0.056
N17V | -0.068 ± 0.031
N17A | -0.041 ± 0.035
N17Q | 0.033 ± 0.044
N17C | -0.01 ± 0.056
N17D | -0.011 ± 0.067

Variant | abundance fitness
N17R | -0.001 ± 0.033
N17W | -0.115 ± 0.034
N17E | -0.024 ± 0.043
D10G | -0.168 ± 0.2
D10C | -0.783 ± 0.37
D10N | -0.102 ± 0.049
D10F | -0.758 ± 0.24
P13Y | -0.774 ± 0.1
P13C | -0.235 ± 0.056
P13R | -0.153 ± 0.036
P13E | -0.343 ± 0.06
P13G | -0.068 ± 0.041
P13S | -0.081 ± 0.041
P13L | -0.734 ± 0.048
P13I | -0.193 ± 0.16
P13N | -0.275 ± 0.1
P13A | -0.082 ± 0.046
P13K | -0.119 ± 0.066
P13W | -0.778 ± 0.073
P13D | -0.458 ± 0.095
P13Q | -0.296 ± 0.076
P13F | -1.08 ± 0.27
P13M | -0.406 ± 0.077
P13H | -0.51 ± 0.11

Variant | abundance fitness
V5P | -0.755 ± 0.071
V5C | -0.213 ± 0.043
V5S | -0.404 ± 0.04
V5H | -0.335 ± 0.071
V5M | -0.134 ± 0.041
V5K | -0.288 ± 0.056
V5G | -0.425 ± 0.039
V5Q | -0.329 ± 0.059
V5T | -0.323 ± 0.048
V5F | -0.052 ± 0.046
V5L | -0.244 ± 0.035
V5E | -0.708 ± 0.079
V5I | -0.189 ± 0.035
V5Y | -0.113 ± 0.054
V5N | -0.839 ± 0.069
L21H | -0.761 ± 0.19
L21T | -0.523 ± 0.049
L21E | -0.793 ± 0.085
L21K | -0.892 ± 0.12
L21S | -0.811 ± 0.057
L21V | -0.079 ± 0.035
L21A | -0.671 ± 0.057
L21Q | -0.754 ± 0.09
L21D | -1.05 ± 0.16

Variant | abundance fitness
L21P | -0.724 ± 0.082
L21M | -0.079 ± 0.05
L21C | -0.349 ± 0.068
L21G | -1.06 ± 0.073
L21W | -1.09 ± 0.11
L21F | -1.01 ± 0.12
L21Y | -1.09 ± 0.12
L21R | -0.998 ± 0.069
L21N | -0.806 ± 0.22
K3W | -0.253 ± 0.05
K3R | -0.065 ± 0.043
K3Y | -0.205 ± 0.058
K3M | 0 ± 0.05
K3C | -0.223 ± 0.09
K3T | -0.117 ± 0.062
K3H | -0.224 ± 0.078
K3D | -0.22 ± 0.08
K3Q | -0.293 ± 0.067
K3G | -0.227 ± 0.042
K3S | -0.135 ± 0.044
K3A | -0.225 ± 0.053
K3F | -0.038 ± 0.065
K3V | -0.107 ± 0.041
K3I | -0.257 ± 0.054

Variant | abundance fitness
K3E | -0.309 ± 0.07
K3P | -0.234 ± 0.064
K3N | -0.112 ± 0.056
K3L | -0.102 ± 0.034
M12L | 0.016 ± 0.032
M12N | -0.007 ± 0.067
M12D | -0.04 ± 0.054
M12Q | -0.009 ± 0.055
M12F | -0.062 ± 0.068
M12P | -0.008 ± 0.048
M12I | 0.036 ± 0.06
M12Y | -0.018 ± 0.069
M12W | -0.07 ± 0.039
M12E | 0.017 ± 0.049
M12V | -0.022 ± 0.039
M12A | 0.017 ± 0.038
M12T | 0.016 ± 0.051
M12G | -0.136 ± 0.036
M12K | 0.065 ± 0.051
M12S | 0.007 ± 0.037
M12C | 0.032 ± 0.052
M12R | -0.002 ± 0.029
M12H | 0.006 ± 0.091
